Laboratory results from paper PMC4807281, “Glutathionylation of the Bacterial Hsp70 Chaperone DnaK Provides a Link between Oxidative Stress and the Heat Shock Response” (The Journal of Biological Chemistry, 2016).

Target: Cys15 (UniProt position 15, GTTNSCVAIMD)
Experiment: UV-vis
Conditions: 25 °C; 100 mM KCl, 5 mM MgCl2 (plus KOH added during titration); Buffer B: 50 mM Tris-HCl, pH 7.5, 100 mM KCl, 5 mM MgCl2. The pH was raised by stepwise addition of 6 N KOH in Buffer B.; Reduced (free thiol) DnaK with no nucleotide or peptide added (apo state), 15 μM protein

Chaperone protein DnaK (Hsp70) (Escherichia coli)
pKa: about 12
